For 2 molecules, koff, kon and Ka results are on record in patent publication US20050244333A1 (CITY OF HOPE, published 2005).

In experiment [1] the target is T1, carcinoembryonic antigen (CEA) (human, UniProt P06731 35-685, biotinylated with EZ-Link Sulfo-NHS-LC-Biotin for the SPR assay).
T1 construct: Purified CEA; biotinylated and immobilised on a streptavidin chip for SPR, unlabelled in the immunoreactivity assay; also called purified CEA; CEA-biotin
T1 sequence (looked up): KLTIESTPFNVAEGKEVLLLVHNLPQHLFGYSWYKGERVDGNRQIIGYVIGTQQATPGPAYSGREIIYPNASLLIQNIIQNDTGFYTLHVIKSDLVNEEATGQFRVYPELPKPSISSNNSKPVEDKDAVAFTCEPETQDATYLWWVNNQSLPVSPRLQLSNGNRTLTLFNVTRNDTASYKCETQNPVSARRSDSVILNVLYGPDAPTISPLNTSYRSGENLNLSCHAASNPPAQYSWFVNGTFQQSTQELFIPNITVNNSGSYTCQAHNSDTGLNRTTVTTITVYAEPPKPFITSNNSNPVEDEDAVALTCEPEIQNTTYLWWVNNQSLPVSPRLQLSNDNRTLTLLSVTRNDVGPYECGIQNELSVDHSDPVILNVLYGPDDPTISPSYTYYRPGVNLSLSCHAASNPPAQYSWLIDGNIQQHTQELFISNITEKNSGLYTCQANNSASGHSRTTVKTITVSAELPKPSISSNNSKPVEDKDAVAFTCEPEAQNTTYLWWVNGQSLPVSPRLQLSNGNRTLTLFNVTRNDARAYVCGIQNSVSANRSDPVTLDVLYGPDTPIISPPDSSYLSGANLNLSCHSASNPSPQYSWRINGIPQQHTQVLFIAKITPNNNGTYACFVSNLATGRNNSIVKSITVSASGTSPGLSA
Kind of experiment: SPR, Biacore 1000; biotinylated CEA on SA chip, antibody injected at 3.12-100 nM, bivalent analyte model. The procedure: (§1) The binding affinity of the antibodies to purified CEA was determined by surface plasmon resonance (SPR) on a Biacore 1000 (Biacore AB, Uppsala, SW). CEA was biotinylated using the EZ-Link Sulfo-NHS-LC-Biotin kit (Pierce, Rockford, Ill.) and immobilized to a SA biosensor chip (Biacore Inc.) in HBS buffer. A series of increasing antibody concentrations (3.12, 6.25, 12.5, 25, 50, and 100 nM) were injected over a low density (175 RU) of the immobilized CEA-biotin for the association and dissociation phase, with regeneration by a single pulse of 6 M GuHCl. The data were analyzed by BIAevaluation (v3.0) software using the bivalent analyte model to calculate the KA=kₒₙ/koff. Antibody concentrations were determined by amino acid analysis.
In general terms: Surface plasmon resonance follows binding to a sensor surface in real time, without labels.

Experiment [2] has as its target T1, carcinoembryonic antigen (CEA). Kind of experiment: SPR, Biacore 1000; biotinylated CEA on SA chip, antibody injected at 3.12-100 nM, bivalent analyte model; KA = kon/koff. The procedure:
as §1

B1: humanized T84.66 antibody M5A (antibody, V domains shown)
VH: EVQLVESGGGLVQPGGSLRLSCAASGFNIKDTYMHWVRQAPGKGLEWVARIDPANGNSKYADSVKGRFTISADTSKNTAYLQMNSLRAEDTAVYYCAPFGYYVSDYAMAYWGQGTLVTVSS
VL: DIQLTQSPSSLSASVGDRVTITCRAGESVDIFGVGFLHWYQQKPGKAPKLLIYRASNLESGVPSRFSGSGSRTDFTLTISSLQPEDFATYYCQQTNEDPYTFGQGTKVEIK
notes: For the immunoreactivity assay the antibody was labelled with 131I; also called M5A mAb; 131I-M5A
Broadly, the koff is a measure of how fast the partners let go of each other. A low value points to slow dissociation. Usually kon stands for the second-order rate constant of association. Low values mean slower complex formation, high ones faster complex formation. With B1, in experiment [1], the koff came out at 3.01e-05 s⁻¹ and the association rate constant (kon) was 330000 M⁻¹ s⁻¹. The same molecule returned a Ka in experiment [2] of 1.1e+10 M⁻¹.

B2: humanized T84.66 antibody M5B (antibody, V domains shown)
VH: EVQLVESGGGLVQPGGSLRLSCAASGFNIKDTYMHWVRQAPGKGLEWVARIDPANGNSKYVPKFQGRATISADTSKNTAYLQMNSLRAEDTAVYYCAPFGYYVSDYAMAYWGQGTLVTVSS
VL: DIQLTQSPSSLSASVGDRVTITCRAGESVDIFGVGFLHWYQQKPGKAPKLLIYRASNLESGVPSRFSGSGSRTDFTLTISSLQPEDFATYYCQQTNEDPYTFGQGTKVEIK
notes: Expressed in NS0 cells as an intact antibody with constant regions of a human IgG and a kappa light chain; For the immunoreactivity assay the antibody was labelled with 131I; also called M5B mAb
As for B2, in experiment [1], the off-rate constant (koff) turned out to be 2.56e-05 s⁻¹ and the association rate constant (kon) turned out to be 488000 M⁻¹ s⁻¹. This molecule also yielded a Ka in experiment [2] of 1.9e+10 M⁻¹.
